The source of these data is doi:10.1101/2020.02.10.941963.

Read-outs that look alike come from different tables or passages of the source.

Series [1] deals with T1, Rv1019 (TetR family regulator) (Mycobacterium tuberculosis H37Rv) (UniProt P96381).
T1 sequence: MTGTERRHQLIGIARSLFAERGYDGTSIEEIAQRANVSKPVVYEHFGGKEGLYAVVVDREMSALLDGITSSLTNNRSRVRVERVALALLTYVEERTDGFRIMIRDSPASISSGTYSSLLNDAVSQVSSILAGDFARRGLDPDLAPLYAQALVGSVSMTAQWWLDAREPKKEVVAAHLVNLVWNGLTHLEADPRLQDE
Description: EMSA.

The target in series [2] is Rv1019, putative TetR family transcriptional regulator of Mycobacterium tuberculosis H37Rv (Mycobacterium tuberculosis H37Rv). Kind of series: native gel or EMSA. (Mobility shift assays separate free from complexed probe on a gel.)
The target is the same in series [3]. Kind of series: cross-linking.
The target in series [4] is T2, Rv1019 (TetR family regulator) (Mycobacterium tuberculosis H37Rv, UniProt P96381 1-197).
T2 sequence: T1 sequence
Kind of series: EMSA.

For series [5], the target named is T2, Rv1019 (TetR family regulator). Kind of series: EMSA. The source holds these as a separate data set.

“CCTGGCGCGCGTCACCCGCGTCGGGTTTTCCGGCGCCTTATCCGGCCCTTTATCCGGTCCGGCCACATCAACAAGGGTATCGGTTTGCGTGGGGCCGGTGGGTAGACGGCGACAGCGTTGACTGTGCTGACGGCGTTGACACCGTCTAAAGTCACATCGATGTGCAATCCGTCGTGGTGTAATCGGCAGCACCTCTGATTTTGGTTCAGATAGTTCAGGTTCGAGTCCTGGCGACGGAGCTTCAAGGAGGGTTGATGACGTTTCCTGGTGACACCGCGGTCCTGGTCCTAGCGGCCGGGC (double strand) [Fragment I, Rv1019 upstream -300 to -1]”: the binding result in series [1] is recorded as “binds”.

For the molecule “Rv1019, putative TetR family transcriptional regulator of Mycobacterium tuberculosis H37Rv (natural protein)”, the stoichiometry N in series [2] and in series [3] was 2 each time.

B1: M. smegmatis cognate site (MS Pal S1/S2) (dsDNA)
DNA 1: GGCTTGACGTGCGCGAACCGTCGAAAG
DNA 2: CTTTCGACGGTTCGCGCACGTCAAGCC
B1: the binding result in series [4] is given as “binds”.

B2: Rv1019 18 bp inverted repeat (Palindrome Oligo S1/S2) (dsDNA)
DNA 1: TGACTTTAGACGGTGTCAACGCCGTCAGCACAGT
DNA 2: ACTGTGCTGACGGCGTTGACACCGTCTAAAGTCA
As for B2, the binding result in series [5] is on record as “binds”.
